For one series, the target named is T1, SifR (SpSifR, SPD_1448) (Streptococcus pneumoniae, UniProt A0A0H2ZNG7).
T1 construct: pHis.parallel1, E. coli BL21(DE3); His6 tag removed with TEV protease; homodimer; about 16 kDa protomer (BQ2-SifR expected 16,227 Da)
Put plainly: LC-ESI-MS and tandem LC-MS/MS adduct; fluorescence anisotropy DNA release. The class given is binding. The note with it: covalent at C102, slower than BQ, mainly monoadduct; 20-fold excess, 1 h, pH 7.5.

The target of another series is T2, YhdA (SpYhdA, SPD_1375) (Streptococcus pneumoniae, UniProt A0A0H2ZRU6).
T2 construct: pHis.parallel1, E. coli BL21(DE3); His6 tag removed with TEV protease
Put plainly: ferric reductase, ferrozine capture at […] nm. The class given is biochemical. The following applies: 10 uM FMN, 100 uM Fe(III)-NTA, 100 uM NADH or NADPH, pH 7.5, 25 C.

Series [1] deals with T3, CatE (SpCatE, SPD_0072) (Streptococcus pneumoniae, UniProt A0A0H2ZQ49).
T3 construct: pHis.parallel1, E. coli BL21(DE3); His6 tag removed with TEV protease; Fe(II)-reconstituted
Put plainly: UV-Vis and MS of ring-cleavage product. The class given is biochemical. The note with it: 5 uM Fe(II)-CatE, 100 uM substrate, ambient O2, pH 7.4, room temperature.

Series [2] concerns the target T3, CatE (SpCatE, SPD_0072). Put plainly: UV-Vis at […] nm and MS of ring-cleavage product. The class given is biochemical. The following applies: 5 uM Fe(II)-CatE, 100 uM substrate, ambient O2, pH 7.4, room temperature.
The target in series [3] is Streptococcus pneumoniae SifR (streptococcal IscR-like family transcriptional repressor), WT (Streptococcus pneumoniae D39). Put plainly: SEC.
The target in series [4] is Streptococcus pneumoniae SifR C84S (Streptococcus pneumoniae D39). Put plainly: SEC. In general terms: Size exclusion chromatography separates by hydrodynamic size, large species first.
The target of series [5] is Streptococcus pneumoniae SifR C84S/C102S (Streptococcus pneumoniae D39). Put plainly: SEC.
The target of series [6] is Streptococcus pneumoniae SifR C102S (Streptococcus pneumoniae D39). Put plainly: SEC.
Series [7] has as its target T4, SifR WT (Streptococcus pneumoniae D39, UniProt A0A0H2ZNG7 1-145). Put plainly: fluorescence anisotropy competition; reduced, 2 mM TCEP; competitor of F-catE; 25 mM Tris-HCl, 150 mM NaCl, 2 mM EDTA, 2 mM TCEP, pH 7.5, 25 C, ~10 nM labeled DNA (Fig S8: 50 mM Tris-HCl, 150 mM NaCl, pH 7.4, 25 C; NMR: 25 mM MES pH 6.5, 150 mM NaCl, 25 C). The note with it: protein: recombinant; tags: His6 removed by TEV; tag-free; chain copies: 2; blunt. For orientation: Polarisation of emitted light reports the rotation of a fluorescent probe.

The target in series [8] is T4, SifR WT. Put plainly: fluorescence anisotropy; reduced, 2 mM TCEP; 25 mM Tris-HCl, 150 mM NaCl, 2 mM EDTA, 2 mM TCEP, pH 7.5, 25 C, ~10 nM labeled DNA (Fig S8: 50 mM Tris-HCl, 150 mM NaCl, pH 7.4, 25 C; NMR: 25 mM MES pH 6.5, 150 mM NaCl, 25 C). The following applies: protein: recombinant; tags: His6 removed by TEV; tag-free; chain copies: 2; label: 5'-fluorescein; blunt.

The target of the next series is SifR C84S (Streptococcus pneumoniae D39, UniProt A0A0H2ZNG7 1-145, C84S). Described as above. The following applies: protein: recombinant; tags: His6 removed by TEV; tag-free; chain copies: 2; label: 5'-fluorescein; blunt.
The target in the next series is 15N-SifR WT (Streptococcus pneumoniae D39, UniProt A0A0H2ZNG7 1-145). As to the kind of experiment: NMR (1H,15N-TROSY); reduced; pH 6.5; 25 mM Tris-HCl, 150 mM NaCl, 2 mM EDTA, 2 mM TCEP, pH 7.5, 25 C, ~10 nM labeled DNA (Fig S8: 50 mM Tris-HCl, 150 mM NaCl, pH 7.4, 25 C; NMR: 25 mM MES pH 6.5, 150 mM NaCl, 25 C). The following applies: protein: recombinant; tags: His6 removed by TEV; 15N-labeled; chain copies: 2.

By stoichiometry N is commonly meant the number of molecules, sites or subunits per partner or assembly.

As to `CN1CC(O)C2=CC(=O)C(=O)C=C21` (stereo not drawn) [Adc, adrenochrome], at SifR (SpSifR, SPD_1448), the “LC-ESI-MS and tandem LC-MS/MS adduct; fluorescence anisotropy DNA release” value is listed as “Adc reacts more slowly to yield some monoadducted product”.
On to `Cc1cc2nc3c(=O)[nH]c(=O)nc-3n(C[C@H](O)[C@H](O)[C@H](O)COP(=O)(O)O)c2cc1C` [FMN], for which the “ferric reductase, ferrozine capture at 562 nm” value on YhdA (SpYhdA, SPD_1375) was “SpYhdA has significant activity and prefers FMN over FAD”.
On to `NC[C@H](O)c1ccc(O)c(O)c1` [NE, norepinephrine], for which, on CatE (SpCatE, SPD_0072) [1], the “UV-Vis and MS of ring-cleavage product” value is reported as “SpCatE can utilize each of these compounds as substrates”.
Consider `Oc1ccccc1O` [catechol], for which the “UV-Vis at 375 nm and MS of ring-cleavage product” value on CatE (SpCatE, SPD_0072) [2] is reported as “we first monitored its activity using UV–Vis spectroscopy against freshly prepared catechol”.
“Streptococcus pneumoniae SifR (streptococcal IscR-like family transcriptional repressor), WT (natural protein)” returned a stoichiometry N in series [3] of 2.
For “Streptococcus pneumoniae SifR C84S (natural protein)”, the stoichiometry N in series [4] was determined as 2.
As for “Streptococcus pneumoniae SifR C84S/C102S (natural protein)”, the stoichiometry N in [5] amounted to 2.
On to “Streptococcus pneumoniae SifR C102S (natural protein)”, for which, in series [6], the stoichiometry N was determined as 2.

B1: fre O/P (dsDNA)
DNA 1: GATAAAATGTAACAAATTTATTTACAACAAATC
DNA 2: GATTTGTTGTAAATAAATTTGTTACATTTTATC
For B1, in the series with SifR WT [7], the Ka was 0.25 ± 0.05 10^8 M-1.

B2: trxB O/P (dsDNA)
DNA 1: GAAAGAGTTAGAATAAAGATAGTTACAACAAG
DNA 2: CTTGTTGTAACTATCTTTATTCTAACTCTTTC
For the molecule B2, the Ka in the series with SifR WT [7] was 0.13 ± 0.04 10^8 M-1.

B3: F-catE O/P (dsDNA)
DNA 1: TATAGTTGTAATAATAATAATTACAACGAG
DNA 2: CTCGTTGTAATTATTATTATTACAACTATA
modifications: fluorescein-dT at 5' position 1 of strand 1
Regarding B3, the Ka in the series with SifR WT [8] is 1 ± 0.2 10^8 M-1; with SifR C84S, 4.8 ± 1.5 10^8 M-1.

B4: yhdA O/P (dsDNA)
DNA 1: GTTTTGTTGTAATATATTTTATAACAACGAG
DNA 2: CTCGTTGTTATAAAATATATTACAACAAAAC
Regarding B4, the Ka in the series with SifR WT [7] was 0.23 ± 0.04 10^8 M-1.

B5: fre operator 23 bp (dsDNA)
DNA 1: AATGTAACAAATTTATTTACAAC
DNA 2: GTTGTAAATAAATTTGTTACATT
Turning to B5, the binding result with 15N-SifR WT was “binds”.

B6: ywnB O/P (dsDNA)
DNA 1: CAATTGCTGTAACTAAAATAATTACAACAAG
DNA 2: CTTGTTGTAATTATTTTAGTTACAGCAATTG
Turning to B6, the Ka with SifR WT [7] is 3.2 ± 0.4 10^8 M-1.

Source of the values: article PMC9218516, “SifR is an Rrf2-family quinone sensor associated with catechol iron uptake in Streptococcus pneumoniae D39” (The Journal of Biological Chemistry, 2022).
